Measurements as given in patent US20260137799A1, “ANTI-MUC1* ANTIBODY DRUG COMPLEXES AND USES THEREOF” (Minerva Biotechnologies Corporation, priority 2023, published 2026).

Assays:
[1] = biological target: PSMGFR N-10 peptide (SEQ ID NO: 2) (Homo sapiens, UniProt P15941); assay: ELISA binding to PSMGFR N-10 peptide
Source text: (§1) Cancer selective anti-MUC1* antibodies bind to a membrane proximal conformational epitope within the MUC1* extracellular domain, as described in WO 2020/146902.
(§2) The 3C2B1 epitope was mapped more precisely with additional PSMGFR peptide variants (FIGS. 2A, 2B).

[2] = biological target: PSMGFR C-10 peptide (SEQ ID NO: 3) (Homo sapiens, UniProt P15941); assay: ELISA binding to PSMGFR C-10 peptide
Chain of PSMGFR C-10 peptide (SEQ ID NO: 3) (P15941 1110-1144 limits assumed): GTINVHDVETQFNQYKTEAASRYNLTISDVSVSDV
Source text: as §1, §2

[3] = test system: T47D breast cancer cells (T47D-wt); assay: Antibody internalization (pHrodo Deep Red), T47D-wt; type: cell-based, human
Method: Antibodies C2 and 3C2B1 were tested for their ability to be internalized by T47D breast cancer cells (T47D-wt) or T47D cells that were engineered to express high levels of a recombinant MUC1* polypeptide with a 45 amino acid extracellular domain (T47D-MUC1*45), as described in WO2010042562 and WO2010042891. […] C2 internalization was detected within 2.5 hours in T47D-wt cells (FIGS. 3A-3F) and was increased by MUC1*45 expression (FIGS. 3G-3L). […] Unexpectedly, MUC1*45 expression inhibited 3C2B1 internalization (FIG. 3S-3X).
(§3) Antibodies C2 and 3C2B1 were coupled to a pH sensitive fluorophore using the pHrodo Deep Red TFP Ester kit (Thermo cat #P35356), according to manufacturer instructions. Cancer cells were seeded at ˜50,000 cells/well onto μ-Slide 8-well tissue culture-treated, chambered coverslip wells (Ibidi 80806) in their recommended media with 10% FBS. Cells were cultured for 48 hours. Slides were transferred into microscope chamber (37° C.—5% CO2) and equilibrated for ˜30 minutes. […]
(§4) Internalization of the fluorescently labeled antibodies was quantified as follows. […] The integrated pixel density (mean gray-scale value×area) was then measured by the ImageJ software. Positively-stained cells were manually counted and the integrated pixel density was divided by the number of positive cells to yield “Pixel Intensity per positive cell”.

[4] = test system: OE19 esophageal cancer cells; assay: Antibody internalization (pHrodo Deep Red), OE19; type: cell-based
Method: Internalization of antibody 3C2B1 into HPAFII pancreatic cancer cells (FIGS. 5A-5G) and OE19 esophageal cancer cells (FIGS. 5H-5N) was detectable after 8 hours and nearly complete at 16 hours. The results are quantified in FIG. 5O.
as §3, with “minutes. The pHrodo Deep Red coupled antibody was then diluted to a concentration of 200 to 300 μg/mL into pre-warmed media supplemented with 10% FBS. Media was removed from the chamber slides and the diluted antibodies were separately added.” for “minutes.”
as §4

[5] = test system: pancreatic cancer specimens; assay: IHC of tissue microarray, pancreatic cancer; type: binding, human; settings: 40 specimens, antibodies at 15 μg/mL
Source text: Tissue microarrays are typically made up of hundreds of tissue specimens, where each specimen in the array comes from a different patient. The breast cancer array contained patient specimens of all types of invasive breast cancers, including less common forms such as carcinomas with medullary features and papillary carcinomas. The lung cancer array contained specimens from patients diagnosed with squamous cell carcinoma, adenocarcinoma, mucinous adenocarcinoma, adenosquamous carcinoma and large cell carcinoma. The pancreatic cancer tissue microarray contained specimens from patients with ductal adenocarcinomas.
Similar to the lung cancer results, antibody 3C2B1 stained pancreatic cancers better than C2. Of the 40 specimens from 40 different pancreatic cancer patients, 27 were positively stained by C2, 3C2B1, or both. Eighteen (18) stained more robustly with 3C2B1 than C2 or were not stained by C2 at all. One specimen stained slightly better with C2 and 8 specimens stained essentially the same with either antibody.
Cancerous tissue arrays were purchased from Tissue Array (Derwood, MD). After deparaffinization, antigen retrieval (pH 6.0) was performed for 10 min. The sections incubated in blocking buffer (10% normal goat serum and 5% BSA in TBS) at room temperature for 1 hr before incubating in either C2 or 3C2B1 in 1% BSA-TBS overnight at 4° C. […]

[6] = Toxicity in animal studies; type: in vivo; settings: each antibody incorporated into several ADC formats
Source text: Exatecans and deruxtecans can also have bystander effects. […] It is not completely clear whether these side effects are due to the payload or to the HER2 target, which is also expressed on normal lung and normal heart. The first two patients treated with a HER2 targeting CAR T cell product died shortly after the infusion. […] More recently, yet another patient died after being treated with a different HER2-targeting ADC. […] 32CB1, C2 and 20A10 unexpectedly have an extremely high degree of cancer specificity and elicited no toxicities in animal studies, where each antibody was incorporated into several ADC formats.

Chain of PSMGFR N-10 peptide (SEQ ID NO: 2) (P15941 1120-1154 limits assumed): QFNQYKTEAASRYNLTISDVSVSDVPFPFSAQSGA

B1: 3C2B1: anti-MUC1* monoclonal antibody that bound to the PSMGFR peptide (antibody, V domains shown)
VH: EVMLVESGGGLVKPGGSLKLSCAASGITFSTYTMSWVRQTPEKRLEWVATISTGGDKTYYSDSVKGRFTISRDNAKNNLYLQMSSLRSEDTALYYCARGTTAMYYYAMDYWGQGTSVTVSS
VL: DIVLTQSPASLAVSLGQRATISCRASKSISTSDYNYIHWYQQKPGQPPKLLIYLASNLESGVPARFSGSGSGTDFTLNIHPVEEEDAATYYCQHSRELPLTFGAGTKLELK
binding to PSMGFR N-10 [1]: bind | binding to PSMGFR C-10 [2]: do not bind | internalization rate compared to C2 [3]: internalized more slowly | time after which internalization was detectable [4]: 8 h | time at which internalization was nearly complete [4]: 16 h | 3C2B1 > C2 (number of specimens stained better with 3C2B1) [5]: 18 | toxicities in animal studies [6]: no toxicities
